Results from the nanobody polyreactivity screen of Harvey et al. (2022).

Test: yeast display, Sf9 membrane polyspecificity reagent, FACS + sequencing; frameworks hold sequencing errors
Method in brief: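 In a synthetic yeast display library (Saccharomyces cerevisiae BJ5465), nanobody expression was induced with galactose for 36–48 hours. FACS gates were set low and high (top ~1%) using anti-HA fluorescence for expression and streptavidin fluorescence for binding of the Sf9 membrane reagent. Each polyreactivity label is drawn from the gate of origin.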

Question: With “QVQHVESGGGLVQAGGSLRLSCAASGSTFRRYAMGWYRQAPGKERELVASITYRGGSTYYADSVKGRFTISRDNAKNTVYLQKNSLKPEDTAVYYCSKKGVYGPLIEYWAQGTQVTVSS” as the sequence, how does the “polyreactivity (PSR sort gate)” value read?
Answer: high polyreactivity

Question: With “QVQHVESGGGLVQAGGSLRLSCAASGSTFSPNAMGWYRQAPGKERELVAAIRWRTGTTYYADSVKGRFTISRDNAKNTVYLQMNSLKPEDTAVYYCAAVYKPPNNKYGSAWEYGYWGQGTQVTVSS” as the sequence, how does the “polyreactivity (PSR sort gate)” value read?
Answer: high polyreactivity

Question: Which “polyreactivity (PSR sort gate)” value does the source give for “QVQHVESGGGLVQAGGSLRLSCAASGSTFTDYTMGWYRQAPGIESELVARIRSRGARTYYADSVKGRFTISRDNAKNTVYLQMNSLKPEDTAVYYCNKRWGAHRASPAYDYWGQGTQVTVSS” here?
Answer: high polyreactivity

Question: With “QVQHVESGGGLVQAGGSLRLSCAASGSTFVYYAMGWYRQPPGKERELVAVITRGGRTYYADSVKGRFTISRDNAKNTVYLQMNSLKPEDTAVYYCNKVTPHYHDTGLDYWGQGTQVTVSS” as the sequence, how does the “polyreactivity (PSR sort gate)” value read?
Answer: high polyreactivity

Question: Which “polyreactivity (PSR sort gate)” value does the source give for “QVQHVESGGGLVQAGGSLRLSCAASGSTFWYYDMGWYRQAPGKEMELVAAISGSGGRTYYADSVKGRFTISRDNAKNTVYLQMNSLKPEDTAVYYCAADDYWSADFKYNYWGQGTQVTVSS” here?
Answer: low polyreactivity

Question: With “QVQHVESGGGLVQAGGSLRLSCAASGSTFYFYTMGWYRQAPGKERELVAAITYSGGSTYADSVKGRFTISRDNAKNTDYLQMNSLKPEDTAVYYCAAASYFYLYLLEDYWGQGTQVTVSS” as the sequence, how does the “polyreactivity (PSR sort gate)” value read?
Answer: low polyreactivity

Question: Which “polyreactivity (PSR sort gate)” value does the source give for “QVQHVESGGGLVQAGGSLRLSCAASGSTFYGNTMGCYRQAPGKERELVAAISIRGTRTYYADSVKGRFTISRDNAKNTVYLQMNSLKPEDTAVYYCNAVTFPHNYDYWGQGTQVTVSS” here?
Answer: high polyreactivity

Question: Which “polyreactivity (PSR sort gate)” value does the source give for “QVQHVESGGGLVQAGGSLRLSCAASGSTFYRNTKGWYRQAPGKETELVAAISRSGGSTYYADSVKGRFTISRDNAKNTVYVQMNSLKPEDTAVYYCNADYTDYQTYSATTYEYWGQGTQVTVSS” here?
Answer: low polyreactivity

Question: Which “polyreactivity (PSR sort gate)” value does the source give for “QVQHVESGGGLVQAGGSLRLSCAASGSTIILNAMGWYRQAPGKERELVATISSSDTSTYYADSVKGRFTISRDNANNTVYLQMNSLKPEDTAVYYCNADYYTTSYLQRVIHYGVEYDYWGQGTQVTVSS” here?
Answer: low polyreactivity

Question: With “QVQHVESGGGLVQAGGSLRLSCAASGSTYTVYAMGRDRQAPGKERELVAAISGSGGRTYYADSVKGRFTISRDNAKNTVYLQMNILKPEDTGVYYCASQGNYWGQGTQVTVSS” as the sequence, how does the “polyreactivity (PSR sort gate)” value read?
Answer: high polyreactivity

Question: For “QVQHVESGGGLVQAGGSLRLSCAASGTIFEGKGMGWYRQAPGKERELVAAITFRSGSTYYADSVKGRFTISRDNAKNTVYLQMNSLKPEDTAVYYCAADEYYQVSAYDYWGQGTQVTVSS”, which “polyreactivity (PSR sort gate)” value is on record?
Answer: low polyreactivity

Question: With “QVQHVESGGGLVQAGGSLRLSCAASGYTFIMYVMGWYRQAPGKERELVAAIDSNGTSTYADSVKGRFTISLDNAKNTVYFQMNSLKPEDTAVYYCAAGDIFRVFKEYDYWGQGTQVTVSS” as the sequence, how does the “polyreactivity (PSR sort gate)” value read?
Answer: low polyreactivity

Question: For “QVQHVESGGGLVQAGGSLRLSCAASRSIFYYYAMGWYRQPPGKERELVAAISSDGTNYADSVKGRFTITRDNAKNTVYLQMNSLNPEDTAVYYCAKDHCTTSYDEGDYWGQGTQVTVSS”, which “polyreactivity (PSR sort gate)” value is on record?
Answer: low polyreactivity

Question: For “QVQHVESGGGLVQAGGSLRLSCAASRSTFYYYAMGWYRQAPGKERELVAAISRGGGSTYYADSVKGRFTISRDNAKNTVYLQMNSLKPEDTADDYCAARRVGGGFYTWRNPAYEYWGQGTQVTVSS”, which “polyreactivity (PSR sort gate)” value is on record?
Answer: high polyreactivity

Question: Which “polyreactivity (PSR sort gate)” value does the source give for “QVQHVESGGGLVQAGGSLRLSCAASVRTFIYYAMGWYRQAPGKERELVASITTGGRTYYADSVKGRFTISRDNAKNTVYLQMNSLKPEDTAVYYCNARWYRTGSTYHEDYWGQGTQVTVSS” here?
Answer: high polyreactivity

Question: Which “polyreactivity (PSR sort gate)” value does the source give for “QVQHVESGGGLVQAGGSLRLSCAASVRTLYYYAMGWSRQAPGKERELVAAISGGGRTYYADSVKGRFTISRDNAKNTVYLQMIILKPEDTAVYYCAARYRKSGLDNYWGQGTQVTVSS” here?
Answer: high polyreactivity

Question: For “QVQHVESGGGLVQAGGSLRLSCAASVSIFSPNDMGCYRQAPGKERELVAAITSAGSTYYADSVKGRFTISRDNAKNSVYLQMNSLKPEDTAVYYCAASYISVTDYAYFPLWYGYWGQGTQVTVSS”, which “polyreactivity (PSR sort gate)” value is on record?
Answer: low polyreactivity

Question: For “QVQHVESGGGLVQAGGSLRLSCASSGSTFRYNAMGWYRQAPVKERELVAAISSSGGSTYYADSVKGRFTISRDNAKNTVYLQMNSLKPEDPEVYYCAAPTRSRFKGYYYWGQGTQVTVSS”, which “polyreactivity (PSR sort gate)” value is on record?
Answer: high polyreactivity

Question: For “QVQHVESGGGLVQAGGSLRLSCSASGRTFNFYTMGWYRQAPGKEREFVAGITSTGGSTDYADSVKGRFTISRDNAKNTVYLQMNSLKPEDTAVYYCNALRRWWEPYWTYNYWGQGTQVTVSS”, which “polyreactivity (PSR sort gate)” value is on record?
Answer: high polyreactivity

Question: For “QVQHVESGGGLVQAGGSLRLSGAASGSTFQSYAMGWYRQAPGQERELVAAISTSDTDRTYYADSVKGRFTISRDNAKNTVYLQMNSLKPEDTAVYYCNADGYAHGDWYGYWGQGTQVTVSS”, which “polyreactivity (PSR sort gate)” value is on record?
Answer: low polyreactivity

Question: Which “polyreactivity (PSR sort gate)” value does the source give for “QVQHVESGGGLVQAGGSLRLSGAAYGRTFLYNAKGWNIQAPGKERELVAVISKRGGRTYYADSVKGRFTISRDNAKNTVYLQMKSLKPEDTAVYYCGAAYVTPPGPLRYNEYYWGQGSQVTVSS” here?
Answer: high polyreactivity

Question: For “QVQHVESGGGLVQAGGSLRLSIAASVFTFKGNAMGWYRQGPGKEMELVSTITQSGGSTYYADSVKGRFTISRDNAKNTVYLQMNSLKPEDTAVYFCNADPITLYYYSWYNYWGQGTQVTVSS”, which “polyreactivity (PSR sort gate)” value is on record?
Answer: low polyreactivity

Question: With “QVQHVESGGGLVQAGGSLRLSSAASGRTFGIYAMGWSRQAPGKERELVATISWRGGSTYYADSLKGRFTISRDNSKNTVYLQMNSLKPEDTAVDYCAAGYYPYWGQGTQVTVSS” as the sequence, how does the “polyreactivity (PSR sort gate)” value read?
Answer: low polyreactivity

Question: For “QVQHVESGGGLVQAGGSLRLTCAASGNTFWWNAMGWYRQAPGKERELVAAISWRGGSTYYADSVKGRFTISRDNAKNTVYLQMKCLKPEDTAVYYCAKRNYHDESVVEEDYWGQGTQVTVSS”, which “polyreactivity (PSR sort gate)” value is on record?
Answer: low polyreactivity

Question: With “QVQHVESGGGLVQAGGTLRLSCAASGSIFFWYGMGRYRQAPGKERELVAAITSGGISYYADSVKGRFTISRDNAKNTVYFQMNSLKPEDTAVYYCATRTYTYWGGSYPHYYWGQGSQVTVSS” as the sequence, how does the “polyreactivity (PSR sort gate)” value read?
Answer: high polyreactivity

Question: For “QVQHVESGGGLVQAGLSLRLSCAASGRIFYGYAMGWYRQGPGQEREFVAAITSGGRTYYADSVKGRFTISRDNAKTTVYLQLNSLKPEDTAVYYCAAAQYYRYGYWGQGTQVTVSS”, which “polyreactivity (PSR sort gate)” value is on record?
Answer: high polyreactivity

Question: Which “polyreactivity (PSR sort gate)” value does the source give for “QVQHVESGGGLVQAGRSLPLSCAASGSIFWDNALGWYRQATGKEMVLVAAITSCGDTTYYADSVKGRFTISRDNSKNTVYLQMNSLKPEDTAVYYCATDSNWYWGFNYWGQGTQVTVSS” here?
Answer: low polyreactivity

Question: Which “polyreactivity (PSR sort gate)” value does the source give for “QVQHVESGGGLVQAGRSLRLICAASGRTFSRYALGWSRQAPGKERELVASIRSGGSTNYADSVKGRFTISRDNAKNTVYLQMNSLKPEDSAVYYCAKRGRLRNYDYWGQGTQVTVSS” here?
Answer: high polyreactivity

Question: With “QVQHVESGGGLVQAGRSLRLSCAATGYIFWKNAMGWYRQAPGKERELVAGITIRGGRTYYADSVKGRFTISRDNAKNTVYLQMNSLKPEDTAVYYCAAGTGVSRYRYVYWGQGTQVTVSS” as the sequence, how does the “polyreactivity (PSR sort gate)” value read?
Answer: high polyreactivity

Question: Which “polyreactivity (PSR sort gate)” value does the source give for “QVQHVESGGGLVQAGVSLRLSCAASGFTFYNYAMGWYRQAPGKERELVAAITSSGTSTYYADSVKGRFTISRDNAKNTVYLQMNSLKPEDTAVYYCNAVSSYYYSYDYWGQGTQVTVSS” here?
Answer: low polyreactivity

Question: Which “polyreactivity (PSR sort gate)” value does the source give for “QVQHVESGGGLVQAGVSLRLSCAASGSTFRRYAMGWYRQSRGKERELVATISSRGGSTNYADSVKGRFTISRDNAKNTVYLQMNSLNPEDTSFYYCARSTSLVTKDDYWGQGTQVTVSS” here?
Answer: high polyreactivity

Question: For “QVQHVESGGGLVQARGSLRLSCAPSGFTFETNAMGWYRQAPGKEREFDAAISWTTTSTYFADSVKGRVTISRDNAKNTVYLQMNSLKPEDTAVYSCAVGLIREFGWDYDYWGQGTQVTVSS”, which “polyreactivity (PSR sort gate)” value is on record?
Answer: low polyreactivity

Question: With “QVQHVESGGGLVQAVGSLRLSCAASGRIVYYVMGWYRQAPGKERELVAAISTRGGSTYYADSVKGRFTISLDNAKNTVYLQMNSLTPEDTAVYYCAASSLLTRYNSWGQGTQVTVSS” as the sequence, how does the “polyreactivity (PSR sort gate)” value read?
Answer: high polyreactivity

Question: With “QVQHVESGGGLVQAVGSLRLSSAASGSTIRYYAMGWYRQAPGKERELVASISSSGGSTFYADSVKGRFTISRDNAKNSVYLQMNSLKPEDTAVYYCARRYHYNMDYWGQGTQVTVSS” as the sequence, how does the “polyreactivity (PSR sort gate)” value read?
Answer: high polyreactivity

Question: For “QVQHVESGGGLVQPGGSLRLSCAASGNAMGWYRQAPGKERELVASINRSGGRTYYADSVKGSYTISRDNAKNTVYLQMNSLKPEDTAVYYCAARPHYDSDYWGQGTQVTVSS”, which “polyreactivity (PSR sort gate)” value is on record?
Answer: low polyreactivity

Question: With “QVQHVESGGGLVQSGGSHRLSCAASGSTFSDNSLGWYRQAPAKERELVAAISRSGGSTYYADSVNGRFTISRDYAKNTVYLQMNSLIPEDTAVYYCATNRVLTGYDSWGQGTQVTVSS” as the sequence, how does the “polyreactivity (PSR sort gate)” value read?
Answer: high polyreactivity

Question: With “QVQHVESGGGVVQAGGSLRLSCAASGIIFPRNALGWYRQAPGKERELVAAIRSSGGTTYYADSVKGRFTISRDNAKNTVYLQMNSLKPEDTAVFYCAAVTTSKFNYWGQGTQVTVSS” as the sequence, how does the “polyreactivity (PSR sort gate)” value read?
Answer: low polyreactivity

Question: With “QVQHVESGGRLVQAGGSLRLSCAASGITFRVYALGWYRQPRGKERELVAAITSSGGSTYYADSVKGRFTISRDNAKNTVYLQMNSLKPEHTAVDYCAAFSAVDSPLDYWGQGTQVTVSS” as the sequence, how does the “polyreactivity (PSR sort gate)” value read?
Answer: low polyreactivity

Question: Which “polyreactivity (PSR sort gate)” value does the source give for “QVQHVESGGVLVQAGGSLRLSCAASGSIFVIYAMGWYRQAPGQEWELVAAINRGSTNYADSVKGRFTISRDNAKNTVYLQMNSLKPEDTAVYYCAAYGRYGFGRVERYDYWGLGTQVTVSS” here?
Answer: high polyreactivity

Question: For “QVQHVESGGVLVQAGGSLRLSCAASGSTFARNALGWYRQAPGKETELVAAITTRGSSTYYADSVKGRFTISRDKAKNTVYLQLYSLKPEDTAVYYCAAVSRRSWYWGGYRQNGMGYWGQGTQVTVSS”, which “polyreactivity (PSR sort gate)” value is on record?
Answer: high polyreactivity

Question: For “QVQHVESGICLVQAGGSLRLSCAASGGTVTPYAMGWYRQAPGKERELVAAISRYGARTYYADSVKGRFTISRDNANNNVFLEMNSLKPEVSAVYYCAARWYARTYVRGGMVYWRQGTQVTVSS”, which “polyreactivity (PSR sort gate)” value is on record?
Answer: high polyreactivity

Question: With “QVQHVESGLGLDQAAGSLRLSSAASGFIFWYSSMGWYREARGKERELVAAITGGAITYYADSVKGRFTITRDNAKNTVYLPMNSLIPEDTAVYYGADELTLGRFRYDYWGQGTQVTVSA” as the sequence, how does the “polyreactivity (PSR sort gate)” value read?
Answer: high polyreactivity

Question: With “QVQHVESGRGLVQAGGRLRLSCADSGMTFGYSAMGWYRPAPGKDRELVAAISGTAGDTYYADSVKGRFTISRDNAKNTVYLQMNSLKAEVTAVYYCAKVKRWFGVTIELDYWGQGTQGTVSS” as the sequence, how does the “polyreactivity (PSR sort gate)” value read?
Answer: low polyreactivity
